Numbering of substitutions follows the chain as printed. In names and notes the source's numbering stands.
Legend:
[1] = biological target: the molecule itself; test: SEC; MBP-DFCP1 (112-415) constructs on HiLoad 26/600 Superdex 200 pg; 25 mM Tris pH 8.0, 150 mM NaCl, 1 mM MgCl2, 1 mM DTT; monomer and dimer peaks
[2] = biological target: the molecule itself; test: SEC; full-length FLAG-DFCP1 on Superose 6; 25 mM Tris pH 8, 150 mM NaCl, 1 mM DTT, 1 mM MgCl2; monomer and dimer peaks

B1: MBP-DFCP1 (112-415), WT NTPase domain of mouse DFCP1 (domain or fragment, UniProt Q810J8 112-415, looked up)
chain: NKRRHPITVYLVSKVQESLEGEEMDEETKRKKMTERVVSFLLVDENEEIQVTNEEDFIRKLDCKPDQHLKVVSIFGNTGDGKSHTLNHTFFYGREVFKTSPAQESCTVGVWAAYDPVHKVAVIDTEGLLGATVNLSQRTRLLLKVLAISDLVIYRTHADRLHNDLFKFLGDASEAYLKHFTKELKATTARCGLDVPLSTLGPAVIIFHETVHTQLLGSDHPSEAPEKLIQDRFRKLGRFPEAFSSIHYKGTRTYNPPTDFSGLRRALEQLLENNTTRSPRHPGVIFKALKALSDRFSGEIPDDQ
notes: Mouse DFCP1, UniProt Q810J8, residues 112-415 (NTPase domain, 98.8% identical to human DFCP1), in pMal-c2e; MBP was removed with TEV protease only after the SEC step, for the nucleotide hydrolysis assays; also called WT (112-415); DFCP1 NTPase domain; source: E. coli Rosetta (DE3), purified (amylose resin, Superdex 200 SEC); not shown: MBP, N-terminal, kept
[1]
  binding result: binds

B2: MBP-DFCP1 (112-415) K193A (domain or fragment, mouse, UniProt Q810J8 112-415, looked up)
chain: B1 chain with K82A
notes: Mouse DFCP1, UniProt Q810J8, residues 112-415 (NTPase domain) with K193A, in pMal-c2e; also called KA; K193A NTPase domain; source: E. coli Rosetta (DE3), purified (amylose resin, Superdex 200 SEC); not shown: MBP, N-terminal, kept
[1]
  binding result: binds

B3: MBP-DFCP1 (112-415) K193A/R266Q (domain or fragment, mouse, UniProt Q810J8 112-415, looked up)
chain: B1 chain with K82A, R155Q
notes: Mouse DFCP1, UniProt Q810J8, residues 112-415 (NTPase domain) with both K193A and R266Q, in pMal-c2e; also called KARQ; KA/RQ; source: E. coli Rosetta (DE3), purified (amylose resin, Superdex 200 SEC); not shown: MBP, N-terminal, kept
[1]
  binding result: binds

B4: MBP-DFCP1 (112-415) R266Q (domain or fragment, mouse, UniProt Q810J8 112-415, looked up)
chain: B1 chain with R155Q
notes: Mouse DFCP1, UniProt Q810J8, residues 112-415 (NTPase domain) with R266Q, in pMal-c2e; R266Q is a cancer-related mutation found in human patients (endometrial and colorectal cancers); Here it was introduced into the mouse NTPase domain by mutagenesis; also called RQ; RQm/RQd (monomeric/dimeric states); source: E. coli Rosetta (DE3), purified (amylose resin, Superdex 200 SEC); not shown: MBP, …
[1]
  binding result: binds

B5: full-length FLAG-DFCP1 (human double FYVE domain-containing protein 1) (natural protein, UniProt Q9HBF4 1-777, looked up)
chain: MSAQTSPAEKGLNPGLMCQESYACSGTDEAIFECDECCSLQCLRCEEELHRQERLRNHERIRLKPGHVPYCDLCKGLSGHLPGVRQRAIVRCQTCKINLCLECQKRTHSGGNKRRHPVTVYNVSNLQESLEAEEMDEETKRKKMTEKVVSFLLVDENEEIQVTNEEDFIRKLDCKPDQHLKVVSIFGNTGDGKSHTLNHTFFYGREVFKTSPTQESCTVGVWAAYDPVHKVAVIDTEGLLGATVNLSQRTRLLLKVLAISDLVIYRTHADRLHNDLFKFLGDASEAYLKHFTKELKATTARCGLDVPLSTLGPAVIIFHETVHTQLLGSDHPSEVPEKLIQDRFRKLGRFPEAFSSIHYKGTRTYNPPTDFSGLRRALEQLLENNTTRSPRHPGVIFKALKALSDRFSGEIPDDQMAHSSFFPDEYFTCSSLCLSCGVGCKKSMNHGKEGVPHEAKSRCRYSHQYDNRVYTCKACYERGEEVSVVPKTSASTDSPWMGLAKYAWSGYVIECPNCGVVYRSRQYWFGNQDPVDTVVRTEIVHVWPGTDGFLKDNNNAAQRLLDGMNFMAQSVSELSLGPTKAVTSWLTDQIAPAYWRPNSQILSCNKCATSFKDNDTKHHCRACGEGFCDSCSSKTRPVPERGWGPAPVRVCDNCYEARNVQLAVTEAQVDDEGGTLIARKVGEAVQNTLGAVVTAIDIPLGLVKDAARPAYWVPDHEILHCHNCRKEFSIKLSKHHCRACGQGFCDECSHDRRAVPSRGWDHPVRVCFNCNKKPGDL
notes: Human DFCP1 (ZFYVE1), UniProt Q9HBF4, full length; A TEV site lies between FLAG and DFCP1; no cleavage is described for this protein; The domain diagram gives 1-777 for the full-length protein; also called FL DFCP1; FL hsDFCP1; not shown: FLAG, N-terminal, kept
[2]
  binding result: binds
